Experimental data reported in US20240132578A1.

Tests used:
Assay in all cases: cell-based or functional assay
[1] = target: HIV-1 Env of isolate IAVI-C3 (Clade C) (HIV-1)
[2] = target: HIV-1 92RW020 envelope glycoprotein (Env), on pseudovirus (HIV-1 isolate 92RW020 (clade A))
[3] = target: aMLV envelope on pseudotyped virus (negative control) (aMLV)
[4] = target: HIV-1 ADA envelope glycoprotein (Env), on pseudovirus (HIV-1 isolate ADA)
[5] = target: HIV-1 Env of isolate APV-17 (Clade B) (HIV-1)
[6] = target: HIV-1 Env of isolate MGRM-A-010 (pseudovirus) (HIV-1)
[7] = target: HIV-1 Env of isolate MG RM-D-016 (subtype D) (HIV-1)
[8] = target: HIV-1 envelope glycoprotein (Env) of isolate MG RM-A-003 (HIV-1)
[9] = target: HIV-1 Env of isolate MGRM-C-027 (clade C pseudovirus) (HIV-1)
[10] = target: HIV-1 Env of isolate MG RM-D-014 (subtype D) (HIV-1)
[11] = target: HIV-1 Env of pseudovirus 98CN009 (HIV-1)
[12] = target: HIV-1 Env of isolate MGRM-A-014 (pseudovirus) (HIV-1)
[13] = target: HIV-1 Env of isolate MG RM-D-013 (subtype D) (HIV-1)
[14] = target: HIV-1 Env of isolate MGRM-Chronic-B-018 (subtype B), on pseudovirus (HIV-1)
[15] = target: HIV-1 envelope glycoprotein (Env) of isolate MG RM-A-009 (HIV-1)
[16] = target: HIV-1 Env of isolate MGRM-C-025 (clade C pseudovirus) (HIV-1)
[17] = target: HIV-1 Env of isolate MGRM-F1-012 (subtype F) (HIV-1)
[18] = target: HIV-1 Env of isolate MG RM-D-008 (subtype D) (HIV-1)
[19] = target: HIV-1 Env of isolate 92UG024 (subtype D) (HIV-1)
[20] = target: HIV-1 Env of isolate MGRM-F1-013 (subtype F) (HIV-1)
[21] = target: HIV-1 Env of isolate MG RM-D-019 (subtype D) (HIV-1)
[22] = target: HIV-1 Env of isolate 94KE105 (pseudovirus) (HIV-1)
[23] = target: HIV-1 Env of isolate APV_17 (subtype B), on pseudovirus (HIV-1)
[24] = target: HIV-1 Env of isolate MGRM-F1-016 (subtype F) (HIV-1)
[25] = target: HIV-1 Env of isolate MGRM-Chronic-B-002 (subtype B), on pseudovirus (HIV-1)
[26] = target: HIV-1 Env of isolate MG RM-D-026 (subtype D) (HIV-1)
[27] = target: HIV-1 envelope glycoprotein (Env) of isolate 92RW008 (HIV-1)
[28] = target: HIV-1 Env of isolate MG RM-D-004 (subtype D) (HIV-1)
[29] = target: HIV-1 Env of isolate MGRM-C-028 (clade C pseudovirus) (HIV-1)
[30] = target: HIV-1 Env of isolate MG RM-D-012 (subtype D) (HIV-1)
[31] = target: HIV-1 Env of isolate MGRM-Chronic-B-012 (subtype B), on pseudovirus (HIV-1)
[32] = target: HIV-1 Env of isolate MG RM-D-028 (subtype D) (HIV-1)
[33] = target: HIV-1 Env of isolate 92UG046 (subtype D) (HIV-1)
[34] = target: HIV-1 envelope glycoprotein (Env) of isolate 92WR009 (HIV-1)
[35] = target: HIV-1 Env of isolate MGRM-Chronic-B-017 (subtype B), on pseudovirus (HIV-1)
[36] = target: HIV-1 Env of isolate MGRM-A-011 (pseudovirus) (HIV-1)
[37] = target: HIV-1 envelope glycoprotein (Env) of isolate MG RM-A-007 (HIV-1)
[38] = target: HIV-1 Env of isolate MG RM-D-020 (subtype D) (HIV-1)
[39] = target: HIV-1 JR-CSF Env G324A (HIV-1 isolate JR-CSF) (UniProt P20871)
[40] = target: aMLV envelope protein (negative control pseudovirus)
[41] = target: HIV-1 JR-CSF Env I326A (HIV-1 isolate JR-CSF) (UniProt P20871)
[42] = target: HIV-1 JR-CSF Env R350A (HIV-1 isolate JR-CSF) (UniProt P20871)
[43] = target: HIV-1 JR-CSF Env N276A (HIV-1 (isolate JR-CSF)) (UniProt P20871)
[44] = target: HIV-1 envelope glycoprotein (Env) of isolate 93UG077 (HIV-1)

Chain of 1443_C16 (PG16) (TCN-116) (antibody) (VH): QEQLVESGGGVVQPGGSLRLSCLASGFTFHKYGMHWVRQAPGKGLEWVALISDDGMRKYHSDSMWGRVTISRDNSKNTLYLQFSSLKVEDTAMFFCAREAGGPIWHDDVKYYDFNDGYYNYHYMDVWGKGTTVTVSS
Chain of 1443_C16 (PG16) (TCN-116) (antibody) (VL): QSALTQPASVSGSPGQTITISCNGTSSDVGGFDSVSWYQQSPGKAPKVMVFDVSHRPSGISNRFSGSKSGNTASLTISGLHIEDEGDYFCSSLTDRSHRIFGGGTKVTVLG

## 2G12 (antibody)
[1]
  IC90 (neutralization of pseudovirus): > 50 µg/mL

## 1443_C16 (PG16) (TCN-116) (antibody)
[2]
  IC50 (ug/ml), pseudovirus neutralization, TZM-bl assay: 0.09 µg/mL
[3]
  IC50, Neutralizing Antibody Assay, Virus/Ab Incubation 1 hour: > 50 µg/mL
  IC50, Neutralizing Antibody Assay, Virus/Ab Incubation 18 hour: > 50 µg/mL
[4]
  IC50 (ug/ml), pseudovirus neutralization, TZM-bl assay: 0.004 µg/mL
[5]
  IC90 (neutralization of pseudovirus): > 50 µg/mL
[1]
  IC90 (neutralization of pseudovirus): > 50 µg/mL

## 1495_C14 (PGC14) (antibody)
[3]
  IC50, Neutralizing Antibody Assay, Virus/Ab Incubation 1 hour: > 50 µg/mL
  IC50, Neutralizing Antibody Assay, Virus/Ab Incubation 18 hour: > 50 µg/mL

## 1496_C09 (PG9) (TCN-109) (antibody)
[6]
  IC50 (µg/mL), pseudovirus neutralization: 0.022 µg/mL
[7]
  IC50 (µg/mL), pseudovirus neutralization: 0.098 µg/mL
[8]
  IC50: 1.94 µg/mL
[9]
  IC50 (µg/mL), single-round pseudovirus neutralization: 5.36 µg/mL
[10]
  IC50 (µg/mL), pseudovirus neutralization: 0.023 µg/mL
[11]
  IC50, pseudovirus neutralization: 0.371 µg/mL
[12]
  IC50 (µg/mL), pseudovirus neutralization: 1.25 µg/mL
[13]
  IC50 (µg/mL), pseudovirus neutralization: 0.021 µg/mL
[14]
  IC50, single-round pseudovirus neutralization: 0.216 µg/mL
[2]
  IC50 (ug/ml), pseudovirus neutralization, TZM-bl assay: 0.1 µg/mL
[15]
  IC50: 0.023 µg/mL
[16]
  IC50 (µg/mL), single-round pseudovirus neutralization: 0.148 µg/mL
[17]
  IC50 (µg/mL), pseudovirus neutralization: 0.023 µg/mL
[18]
  IC50 (µg/mL), pseudovirus neutralization: 11.5 µg/mL
[19]
  IC50 (µg/mL), pseudovirus neutralization: 1.86 µg/mL
[20]
  IC50 (µg/mL), pseudovirus neutralization: 1.25 µg/mL
[21]
  IC50 (µg/mL), pseudovirus neutralization: 0.038 µg/mL
[22]
  IC50 (µg/mL), pseudovirus neutralization: 37.9 µg/mL
[23]
  IC50, single-round pseudovirus neutralization: 34.8 µg/mL
[24]
  IC50 (µg/mL), pseudovirus neutralization: 0.518 µg/mL
[4]
  IC50 (ug/ml), pseudovirus neutralization, TZM-bl assay: 0.2 µg/mL
[25]
  IC50, single-round pseudovirus neutralization: 3.44 µg/mL
[26]
  IC50 (µg/mL), pseudovirus neutralization: 23.7 µg/mL
[27]
  IC50: 0.006 µg/mL
[28]
  IC50 (µg/mL), pseudovirus neutralization: 0.06 µg/mL
[29]
  IC50 (µg/mL), single-round pseudovirus neutralization: 0.067 µg/mL
[30]
  IC50 (µg/mL), pseudovirus neutralization: 16.2 µg/mL
[31]
  IC50, single-round pseudovirus neutralization: 0.2 µg/mL
[32]
  IC50 (µg/mL), pseudovirus neutralization: 20.2 µg/mL
[33]
  IC50 (µg/mL), pseudovirus neutralization: 1.86 µg/mL
[34]
  IC50: 0.05 µg/mL
[35]
  IC50, single-round pseudovirus neutralization: 0.688 µg/mL
[36]
  IC50 (µg/mL), pseudovirus neutralization: 0.033 µg/mL
[37]
  IC50: 1.06 µg/mL
[38]
  IC50 (µg/mL), pseudovirus neutralization: 1.67 µg/mL

## 4858_P08 (PGT-123) (antibody)
[39]
  Fold IC50 increase relative to wild-type: 14.5 fold
[40]
  IC50, pseudovirus neutralization: > 10 µg/mL
  IC80 (pseudovirus neutralization): > 10 µg/mL
  IC90 (pseudovirus neutralization): > 10 µg/mL
  IC95 (pseudovirus neutralization): > 10 µg/mL

## 5114_A19 (PGT-128) (antibody)
[41]
  Fold IC50 increase relative to wild-type: 1.6 fold

## 5136_H01 (PGT-131) (antibody)
[42]
  Fold IC50 increase relative to wild-type: 1.3 fold
[43]
  Fold IC50 increase relative to wild-type: 0.8 fold

## 5141_B17 (PGT-126) (antibody)
[40]
  Neutralization IC80: > 10 µg/mL
  Neutralization IC90: > 10 µg/mL
  Neutralization IC95: > 10 µg/mL
  neutralization IC50: > 10 µg/mL
[44]
  Neutralization IC80: 0.102 µg/mL
  Neutralization IC90: 0.238 µg/mL
  Neutralization IC95: 0.577 µg/mL
  neutralization IC50: 0.0256 µg/mL

## 5145_B14 (PGT-127) (antibody)
[41]
  Fold IC50 increase relative to wild-type: 3.5 fold

## 5147_N06 (PGT-130) (antibody)
[39]
  Fold IC50 increase relative to wild-type: > 50 fold
[42]
  Fold IC50 increase relative to wild-type: 0.5 fold

## 5343_B08 (PGT-135) (antibody)
[43]
  Fold IC50 increase relative to wild-type: 2.5 fold

## PGV04 (antibody)
[6]
  IC50 (µg/mL), pseudovirus neutralization: 0.205 µg/mL
[7]
  IC50 (µg/mL), pseudovirus neutralization: 0.201 µg/mL
[8]
  IC50: 0.128 µg/mL
[9]
  IC50 (µg/mL), single-round pseudovirus neutralization: 2.76 µg/mL
[10]
  IC50 (µg/mL), pseudovirus neutralization: 0.194 µg/mL
[11]
  IC50, pseudovirus neutralization: 0.0125 µg/mL
[12]
  IC50 (µg/mL), pseudovirus neutralization: 0.172 µg/mL
[13]
  IC50 (µg/mL), pseudovirus neutralization: 0.088 µg/mL
[14]
  IC50, single-round pseudovirus neutralization: 0.164 µg/mL
[15]
  IC50: 0.033 µg/mL
[16]
  IC50 (µg/mL), single-round pseudovirus neutralization: > 50 µg/mL
[17]
  IC50 (µg/mL), pseudovirus neutralization: 0.25 µg/mL
[18]
  IC50 (µg/mL), pseudovirus neutralization: 3.56 µg/mL
[19]
  IC50 (µg/mL), pseudovirus neutralization: 0.201 µg/mL
[20]
  IC50 (µg/mL), pseudovirus neutralization: 0.084 µg/mL
[21]
  IC50 (µg/mL), pseudovirus neutralization: 0.35 µg/mL
[22]
  IC50 (µg/mL), pseudovirus neutralization: 2.98 µg/mL
[23]
  IC50, single-round pseudovirus neutralization: 0.309 µg/mL
[24]
  IC50 (µg/mL), pseudovirus neutralization: 0.268 µg/mL
[25]
  IC50, single-round pseudovirus neutralization: 0.142 µg/mL
[26]
  IC50 (µg/mL), pseudovirus neutralization: 1.76 µg/mL
[27]
  IC50: 0.014 µg/mL
[44]
  IC50: 0.083 µg/mL
[28]
  IC50 (µg/mL), pseudovirus neutralization: 43.2 µg/mL
[29]
  IC50 (µg/mL), single-round pseudovirus neutralization: 0.149 µg/mL
[30]
  IC50 (µg/mL), pseudovirus neutralization: 0.125 µg/mL
[31]
  IC50, single-round pseudovirus neutralization: > 50 µg/mL
[32]
  IC50 (µg/mL), pseudovirus neutralization: 1.01 µg/mL
[33]
  IC50 (µg/mL), pseudovirus neutralization: 22.4 µg/mL
[34]
  IC50: 0.108 µg/mL
[35]
  IC50, single-round pseudovirus neutralization: 0.129 µg/mL
[36]
  IC50 (µg/mL), pseudovirus neutralization: 0.09 µg/mL
[37]
  IC50: 7.21 µg/mL
[38]
  IC50 (µg/mL), pseudovirus neutralization: 0.097 µg/mL

## b12 (antibody)
[5]
  IC90 (neutralization of pseudovirus): > 50 µg/mL
